In patent US20240409645A1 (DUALYX, published 2024):
Changes are numbered by the printed parent chain.

B1: FJ1427 P035MP06A08 (VHH)
VHH: EVQLVESGGGLVQAGESLRLSCAASGQYFSTYSMAWFRRTPGKEREFVTIISESGGIKEYVDSVKGRFTVSRDNAKNTVYLQMNSLKPEDTAVYYCAAARDWFARNEYQYDYWGQGTQVTVSS
notes: Soluble VHH in periplasmic extract (P.E.); also called Clone nr
B2: FJ1427 P035MP06E03 (VHH)
VHH: EVQLVESGGGLVQAGGSLRLSCAASGDVFVRYTMAWFRQAPGKEREFVASVTDSGRTTDYVDSVKGRFTVSRDNAKNTVYLQMNNLKPEDTAVYYCAANTDYFQIKSLDRNTWGQGTQVTVSP
notes: as for B1
B3: FJ1427_P035MP06H03 (VHH)
VHH: B2 VHH with E1Q, A24V, D59E, V79A, K106R, R110L, P123S
notes: as for B1
B4: FJ1427_P035MP06E04 (VHH)
VHH: B2 VHH with E1Q, A24V, D59E, V79A, K106R, R110L, P123S
notes: as for B1
B5: FJ1427_P035MP06B04 (VHH)
VHH: B2 VHH with E1Q, A24V, D59E, V79A, K106R, R110L, P123S
notes: as for B1
B6: FJ1427_P035MP06C08 (VHH)
VHH: B2 VHH with E1Q, D59E, V79A, V93I, K106R, R110L, P123S
notes: as for B1
B7: FJ1427_P035MP06B10 (VHH)
VHH: B2 VHH with E1Q, F29L, D59E, V79A, V93I, K106R, R110L, P123S
notes: Soluble VHH in periplasmic extract (P.E.); also called Clone nr; 554
B8: FJ1427_P035MP06A03 (VHH)
VHH: B2 VHH with K106R, D109E, R110F, P123S
notes: as for B1
B9: FJ1427_P035MP06E06 (VHH)
VHH: B2 VHH with S21F, A24V, D59E, N77D, V79A, K106R, R110L, P123S
notes: Soluble VHH in periplasmic extract (P.E.); also called Clone nr; 525
B10: FJ1427_P035MP06H08 (VHH)
VHH: B2 VHH with E1Q, D59E, V79A, V93I, K106R, R110L, P123S
notes: as for B1
B11: FJ1427_P035MP06F08 (VHH)
VHH: B2 VHH with E1Q, D59E, V79A, K106R, D109N, R110L, P123S
notes: Soluble VHH in periplasmic extract (P.E.); also called Clone nr; 542
B12: FJ1427 P035MP06G09 (VHH)
VHH: B2 VHH with E1Q, A14P, P123S
notes: Soluble VHH in periplasmic extract (P.E.); also called Clone nr; 551
B13: FJ1427_P035MP06H04 (VHH)
VHH: B2 VHH with A24V, D59E, V79A, K106R, R110L, P123S
notes: as for B1
B14: FJ1427_P035MP06G02 (VHH)
VHH: B2 VHH with A23V, A24V, G42R, S50V, D59E, K106R, L108V, R110N, T112A, P123S
notes: as for B1
B15: FJ1427_P035MP06D05 (VHH)
VHH: B2 VHH with E1Q, A24V, D59E, N85S, K106R, D109R, R110A, P123S
notes: as for B1
B16: FJ1427_P035MP06C06 (VHH)
VHH: QVQLQESGGGLVQAGGSLRLSCVVSGDVFVRYTMAWFRQAPGKEREFVAVVTDSGRTTEYVDSVKGRFTVSRDNAKNTVYLQMNNLKPEDTAVYYCAANTDYFQIRSVDNNAWGQGTQVTVSS
notes: Soluble VHH in periplasmic extract (P.E.); also called Clone nr; 523
B17: FJ1427_P035MP06B09 (VHH)
VHH: B2 VHH with E1Q, A24V, F29L, D59E, V79A, K106R, R110L, P123S
notes: Soluble VHH in periplasmic extract (P.E.); also called Clone nr; 546
B18: FJ1427 P035MP06F04 (VHH)
VHH: B2 VHH with E1Q, A24V, D59E, N85S, K106R, D109R, R110A, P123S
notes: Soluble VHH in periplasmic extract (P.E.); also called Clone nr; 510
B19: FJ1427_P035MP06F06 (VHH)
VHH: B2 VHH with E1Q, K106R, D109E, R110F, P123S
notes: as for B1
B20: FJ1427_P035MP06A05 (VHH)
VHH: B2 VHH with E1Q, A24V, D62H, R110A, P123S
notes: as for B1
B21: FJ1427_P035MP06G03 (VHH)
VHH: B16 VHH with Q5V
notes: Soluble VHH in periplasmic extract (P.E.); also called Clone nr; 503
B22: FJ1427 P035MP06E12 (VHH)
VHH: B2 VHH with E1Q, N85A, R110L, P123S
notes: as for B1
B23: FJ1427_P035MP06C04 (VHH)
VHH: B2 VHH with E1Q, V5Q, K106R, D109E, R110F, P123S
notes: as for B1
B24: FJ1427_P035MP06D06 (VHH)
VHH: B2 VHH with A24V, D59E, V79A, K106R, R110L, P123S
notes: as for B1
B25: FJ1427_P035MP06H05 (VHH)
VHH: B16 VHH with Q5V, G10R, D62G
notes: Soluble VHH in periplasmic extract (P.E.); also called Clone nr; 520
B26: FJ1427_P035MP06F02 (VHH)
VHH: B2 VHH with E1Q, V5Q, N85A, R110L, P123S
notes: as for B1
B27: FJ1427_P035MP06B05 (VHH)
VHH: B2 VHH with E1Q, K106R, D109E, R110F, P123S
notes: as for B1
B28: FJ1427_P035MP06G08 (VHH)
VHH: B2 VHH with E1Q, V5Q, D59E, V79A, K106R, D109N, R110L, P123S
notes: Soluble VHH in periplasmic extract (P.E.); also called Clone nr; 543
B29: FJ1427_P035MP06G04 (VHH)
VHH: B16 VHH
notes: as for B1
B30: FJ1427_P035MP06D07 (VHH)
VHH: B2 VHH with E1Q, D59E, V79A, V93I, K106R, R110L, P123S
notes: Soluble VHH in periplasmic extract (P.E.); also called Clone nr; 532
B31: FJ1427_P035MP06E08 (VHH)
VHH: B2 VHH with A24V, D59E, V79A, K106R, R110L, P123S
notes: as for B1
B32: FJ1427_P035MP06G10 (VHH)
VHH: B2 VHH with E1Q, D59E, V79A, K106R, D109N, R110L, P123S
notes: as for B1
B33: FJ1427_P035MP06C05 (VHH)
VHH: B16 VHH with Q1E, Q5V, E44G
notes: as for B1
B34: FJ1427_P035MP06B07 (VHH)
VHH: B2 VHH with A24V, D59E, V79A, K106R, R110L, P123S
notes: Soluble VHH in periplasmic extract (P.E.); also called Clone nr; 530
B35: FJ1427_P035MP06D03 (VHH)
VHH: B2 VHH with E1Q, D59E, V79A, V93I, K106R, R110L, P123S
notes: Soluble VHH in periplasmic extract (P.E.); also called Clone nr; 500
B36: FJ1427_P035MP06A06 (VHH)
VHH: B2 VHH with E1Q, V2L, S21A, A24L, D62A, K65Q, A75N, N85S, K106R, P123S
notes: as for B1
B37: FJ1427_P035MP06A09 (VHH)
VHH: B2 VHH with P123S
notes: as for B1
B38: FJ1427_P035MP06D04 (VHH)
VHH: B16 VHH
notes: as for B1

Legend:
[1] = target: T1, human IL-2Rβ (human, UniProt P14784 27-240, limits assumed); assay: SPR off-rate ranking of P.E., human IL-2Rβ immobilized
T1 construct: Recombinant human IL-2Rβ protein, coated on ELISA plates or immobilized on a CM5 chip; also called hu IL-2R; interleukin 2 receptor β-chain
T1 sequence: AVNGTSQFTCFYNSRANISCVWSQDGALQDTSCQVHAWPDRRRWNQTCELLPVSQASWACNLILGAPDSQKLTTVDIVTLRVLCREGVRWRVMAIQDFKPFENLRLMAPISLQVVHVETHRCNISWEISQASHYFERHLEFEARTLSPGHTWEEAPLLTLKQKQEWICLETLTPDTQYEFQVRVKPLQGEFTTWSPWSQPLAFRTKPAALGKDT
Protocol: SPR was performed to determine dissociation rates using Biacore 3000 instrument (GE Healthcare). Briefly, human and mouse IL-2R proteins were immobilized on carboxylmethyl dextran sensor chip (CM5) at approximately 2500 RUs using amine coupling in acetate buffer (GE Healthcare). The VHH-containing P.E. were loaded with a flow rate of 30 uL/min and the off-rates were measured over a 120s period.

[2] = target: T1, human IL-2Rβ; assay: P.E. binding ELISA, human IL-2Rβ coated
Protocol: In a binding ELISA, human or mouse IL-2Rα, IL-2Rβ and IL-2Rγ proteins were coated directly on maxisorp microtiter plates overnight at 4° C. Free binding sites were blocked using 4% Marvel in PBS for 1 hour. Next, 1:5 dilution of P.E. in 1% Marvel/PBS were added to wells and incubated for 1 hour. […] Binding specificity was determined based on O.D. at 450 nm values compared to negative controls.

| Binder | koff [1] [s⁻¹] | OD450 nm (P.E. binding ELISA) [2] [OD450 nm] |
| --- | --- | --- |
| B1 | 0.000497 | 0.44 |
| B2 | 0.000745 | 0.57 |
| B3 | 0.000196 | 0.239 |
| B4 | 0.000198 | 0.974 |
| B5 | 0.000188 | 0.935 |
| B6 | 0.000335 | 0.297 |
| B7 | 0.00223 | 0.264 |
| B8 | 0.000882 | 0.148 |
| B9 | 0.000241 | 1.45 |
| B10 | 0.000349 | 0.313 |
| B11 | 0.000274 | 0.343 |
| B12 | 0.000726 | 0.202 |
| B13 | 0.000245 | 1.02 |
| B14 | 0.000619 | 0.677 |
| B15 | 0.000483 | 0.304 |
| B16 | 0.000698 | 0.255 |
| B17 | 0.00225 | 0.329 |
| B18 | 0.000487 | 1.33 |
| B19 | 0.000935 | 0.224 |

| Binder | koff [1] [s⁻¹] | OD450 nm (P.E. binding ELISA) [2] [OD450 nm] |
| --- | --- | --- |
| B20 | 0.00118 | 0.149 |
| B21 | 0.000586 | 0.267 |
| B22 | 0.000496 | 0.271 |
| B23 | 0.00084 | 0.187 |
| B24 | 0.00029 | 0.289 |
| B25 | 0.000885 | 0.59 |
| B26 | 0.00037 | 0.278 |
| B27 | 0.000871 | 0.617 |
| B28 | 0.000286 | 0.255 |
| B29 | 0.000641 | 0.213 |
| B30 | 0.000346 | 0.957 |
| B31 | 0.000267 | 0.359 |
| B32 | 0.000261 | 1 |
| B33 | 0.000751 | 0.58 |
| B34 | 0.000285 | 1.01 |
| B35 | 0.00029 | 1.02 |
| B36 | 0.000631 | 0.3 |
| B37 | 0.000947 | 0.192 |
| B38 | 0.000621 | 0.189 |
